Laboratory results published in US20240317838A1, “LACTOFERRIN COMPOSITIONS AND METHODS OF USE” (LACTEA THERAPEUTICS LLC, priority 2021, published 2024).
Residue numbers refer to the chain shown, from its start.

B1: API-E2: bovine lactoferrin purified from raw, untreated milk by cation exchange chromatography and filtration according to Example 1 (protein)
chain: APRKNVRWCTISQPEWFKCRRWQWRMKKLGAPSITCVRRAFALECIRAIAEKKADAVTLDGGMVFEAGRDPYKLRPVAAEIYGTKESPQTHYYAVAVVKKGSNFQLDQLQGRKSCHTGLGRSAGWVIPMGILRPYLSWTESLEPLQGAVAKFFSASCVPCIDRQAYPNLCQLCKGEGENQCACSSREPYFGYSGAFKCLQDGAGDVAFVKETTVFENLPEKADRDQYELLCLNNSRAPVDAFKECHLAQVPSHAVVARSVDGKEDLIWKLLSKAQEKFGKNKSRSFQLFGSPPGQRDLLFKDSALGFLRIPSKVDSALYLGSRYLTTLKNLRETAEEVKARYTRVVWCAVGPEEQKKCQQWSQQSGQNVTCATASTTDDCIVLVLKGEADALNLDGGYIYTAGKCGLVPVLAENRKTSKYSSLDCVLRPTEGYLAVAVVKKANEGLTWNSLKDKKSCHTAVDRTAGWNIPMGLIVNQTGSCAFDEFFSQSCAPGRDPKSRLCALCAGDDQGLDKCVPNSKEKYYGYTGAFRCLAEDVGDVAFVKNDTVWENTNGESTADWAKNLNREDFRLLCLDGTRKPVTEAQSCHLAVAPNHAVVSRSDRAAHVKQVLLHQQALFGKNGKNCPDKFCLFKSETKNLLFNDNTECLAKLGGRPTYEEYLGTEYVTAIANLKKCSTSPLLEACAFLTR
B2: Lab-grade standard lactoferrin: commercially available Sigma lab-grade standard lactoferrin (L9507) (protein, UniProt P24627 20-708, looked up)
Lactotransferrin: B1 chain with V126I, T417S, Y420H, R495A
B3: heat-treated API-E2 Lactoferrin: API-E2 Lactoferrin heated across a range of 50-100° C. (protein, UniProt P24627 20-708, looked up)
Lactotransferrin: B1 chain with V126I, T417S, Y420H, R495A
modifications: heat-treated

How the values were obtained:
[1] = Differential Scanning calorimetry (DSC) of lactoferrin samples; type: physicochemical
Method: Di[…] calorimetry (DSC) was used to assess the hololactoferrin and apolactoferrin forms through monitoring unfolding temperatures of lactoferrin samples using a nanoDSC (TA Instruments, Lindon, UT) according to standard DSC protocols known to those of skill in the art (e.g., see Hinz et al “M[…] OF RESULTS OBTAINED ON […] DI[…] CALORIMETRY”; herein incorporated by reference for all purposes.
API-E2 Lactoferrin (10 mg/mL), produced as described herein, was assessed by DSC. […] The lack of other peaks indicates the lack of contaminants and impurities and can assess API-E2 as ˜100%. […] Additionally, the lack of other peaks also indicated the purity of API-E2 Lactoferrin. […] The API-E2 hololactoferrin peak has a Tm of 88.38+/−0.8 C and a delta H of 632.7+/−7.2 kJ/mol. The hololactoferrin natively accounted for on average 8.74+/−1.39% of the total API-E2 lactoferrin with apolactoferrin accounting for the rest in the samples tested. However, the hololactoferrin percentage can be naturally variable. The API-E2 was calculated by this technique to contain virtually 100% pure lactoferrin.
The assay was also performed with heat-treated API-E2 Lactoferrin. API-E2 Lactoferrin was heated across a range of 50-100° C.

[2] = DSC iron binding capability with 1000× molar excess FeCl3; type: physicochemical; settings: FeCl3 in 1000× molar excess
Method: The DSC assay was further used to assess Lactoferrin bioactivity, specifically the iron binding capability of the API-E2 Lactoferrin. Iron chloride (FeCl3) was added in 1000× molar excess to API-E2 Lactoferrin. In the presence of excess iron, the API-E2 lactoferrin will bind the iron to its open iron binding site.

ECM of the buccal cells = test: ECM binding by immunofluorescence imaging in primary buccal cells; type: cell-based; settings: 100 μg/mL, 1 hr at 37 C
Method: Primary buccal cells were next cultured according to a standard protocol (e.g., see Russo et al. Cytotechnology. 2016 October; 68(5): 2105-2114; herein incorporated by reference for all purposes). […] Immunofluorescence imaging was performed as previously described.

[3] = system: Salivary bacteria (including Lactobacillus, Lactococcus, and Streptococcus mutans); test: Salivary bacteria acid production by pH testing; type: cell-based; settings: in the presence of sucrose
Method: Salivary bacteria (including Lactobacillus, Lactococcus, and Streptococcus mutans) produce acid during growth. This acidification is strongly associated with tooth decay, particularly when it results in pH below 5.5, which is a clinically relevant threshold. A slurry of these bacteria were treated with sucrose to stimulate growth, as well as varying concentrations of API-E2 lactoferrin. Upon the addition of sucrose and API-E2 lactoferrin, the pH was adjusted to 7 through a titration and the change in pH was subsequently monitored over the next 6 hours.

lactoperoxidase (LPO) = test: Enzymatic assay for lactoperoxidase (LPO) activity; type: biochemical; settings: colorimetric, turns blue in the presence of peroxidase activity
Source text: An enzymatic assay for lactoperoxidase (LPO) activity was developed utilizing a molecule which in the presence of peroxidase activity turns a blue color.

Molecule	% of Total, apolactoferrin ([1]; native, no added iron)	available Apolactoferrin shifted to the Hololactoferrin form upon addition of excess iron [2] [%]	ECM association of Lactoferrin (ECM of the buccal cells)	pH maintained for the entire 6 hour testing period ([3]; 1 mg/mL)	pH maintained for the entire 6 hour testing period ([3]; 10 mg/mL)	LPO enzymatic activity of the sample (lactoperoxidase (LPO))	DSC peaks observed (apolactoferrin and hololactoferrin) ([1]; conditions as for API-E2)	apolactoferrin peak denaturation temperature ([1]; conditions as for API-E2) [°C]	hololactoferrin peak denaturation temperature ([1]; conditions as for API-E2) [°C]
B1	91.26 +/− 1.39% ^	100	strong binding along the ECM	above 5.5	above 5.5	neither detected by M/S or by the enzymatic assay	–	–	–
B2	–	–	only limited ECM association	–	–	does not result in a positive enzymatic reaction	significantly smaller than those observed for API-E2 and less defined	55	85
B3	–	–	–	–	–	–	loss in both detectable peaks	–	–
